Experimental data published in paper PMC6934413.
Values belong to the molecule of their own block, whether it stands above or below them.

Assays:
[1] = target: Smc-HaloTag with J-Cys (S152C) (Bacillus subtilis) (UniProt P51834); assay: cross-linking
SmcHd(EQ,3A-hd);ScpA-N = target: T1, SmcHd(EQ,3A-hd);ScpA-N (Bacillus subtilis;Bacillus subtilis, UniProt P51834;P51834;P35154 1-219;983-1186;1-86, K60A;R120A;K122A;EQ|); assay: fluorescence anisotropy
T1 sequence 1: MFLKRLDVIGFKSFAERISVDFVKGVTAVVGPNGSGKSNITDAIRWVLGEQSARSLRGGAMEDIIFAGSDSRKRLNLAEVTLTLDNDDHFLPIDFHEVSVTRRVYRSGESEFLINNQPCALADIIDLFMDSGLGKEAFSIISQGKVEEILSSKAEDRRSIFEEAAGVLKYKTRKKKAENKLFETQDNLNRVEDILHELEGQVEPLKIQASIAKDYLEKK
T1 sequence 2: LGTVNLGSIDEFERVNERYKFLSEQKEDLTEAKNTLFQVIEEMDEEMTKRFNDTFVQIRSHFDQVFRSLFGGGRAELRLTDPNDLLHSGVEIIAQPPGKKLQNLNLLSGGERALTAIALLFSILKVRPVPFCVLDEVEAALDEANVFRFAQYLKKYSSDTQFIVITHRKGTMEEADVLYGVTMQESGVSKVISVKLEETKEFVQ
T1 sequence 3: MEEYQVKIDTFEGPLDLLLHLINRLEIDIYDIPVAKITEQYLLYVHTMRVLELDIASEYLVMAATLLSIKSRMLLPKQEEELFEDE

SmcHd(EQ);ScpA-N = target: T2, SmcHd(EQ);ScpA-N (Bacillus subtilis;Bacillus subtilis, UniProt P51834;P35154 1-219+=GPG+983-1186;1-86, E1118Q;internal_change|); assay: fluorescence anisotropy
T2 sequence 1: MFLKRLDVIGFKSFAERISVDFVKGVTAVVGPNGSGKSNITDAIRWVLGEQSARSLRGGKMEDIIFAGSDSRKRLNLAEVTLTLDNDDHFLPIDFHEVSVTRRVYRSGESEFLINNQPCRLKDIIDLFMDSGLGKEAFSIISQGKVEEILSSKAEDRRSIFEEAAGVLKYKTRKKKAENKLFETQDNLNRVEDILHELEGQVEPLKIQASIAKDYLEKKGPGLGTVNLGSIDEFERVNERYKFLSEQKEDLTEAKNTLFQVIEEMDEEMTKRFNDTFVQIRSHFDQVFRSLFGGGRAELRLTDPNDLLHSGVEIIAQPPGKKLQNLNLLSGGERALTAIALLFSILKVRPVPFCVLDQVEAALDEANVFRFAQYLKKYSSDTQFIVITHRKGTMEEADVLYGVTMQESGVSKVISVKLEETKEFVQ
T2 sequence 2: T1 sequence 3

[2] = target: T3, SmcH-CC100 (Smc hinge with adjacent coiled coil) (Bacillus subtilis, UniProt P51834 400-776); assay: fluorescence anisotropy
T3 sequence: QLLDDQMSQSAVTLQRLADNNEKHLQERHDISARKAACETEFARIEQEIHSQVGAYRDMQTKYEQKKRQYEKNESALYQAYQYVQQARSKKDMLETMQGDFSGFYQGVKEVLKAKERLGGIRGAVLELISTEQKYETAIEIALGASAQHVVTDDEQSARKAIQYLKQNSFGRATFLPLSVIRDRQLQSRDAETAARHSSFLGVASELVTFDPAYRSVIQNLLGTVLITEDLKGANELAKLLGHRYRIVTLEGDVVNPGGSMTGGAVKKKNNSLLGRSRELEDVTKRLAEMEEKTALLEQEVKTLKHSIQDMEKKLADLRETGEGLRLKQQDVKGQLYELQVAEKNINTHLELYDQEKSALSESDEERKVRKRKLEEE

fraction of Smc-HT in the cross-linked species [1]: 66%
Molecule: Smc-HaloTag with J-Cys (S152C) (from UniProt P51834 1-1186) (natural protein)

B1: 40 bp random sequence dsDNA (dsDNA)
DNA 1: TTAGTTGTTCGTAGTGCTCGTCTGGCTCTGGATTACCCGC
DNA 2: GCGGGTAATCCAGAGCCAGACGAGCACTACGAACAACTAA
binding result (SmcHd(EQ,3A-hd);ScpA-N): no binding
binding result (SmcHd(EQ);ScpA-N): binds
binding result [2]: binds
